The values that follow come from patent publication US10618964B2, “Nanobody against IL-6R” (Ablynx N.V., dated 2020).

The target of experiment [1] is T1, native soluble IL-6R in human plasma (human, UniProt P08887). The experiment is described as follows: ELISA 1, periplasmic extract; competitor IL-6; human plasma. Here is the method: (§1) In this ELISA, plasma was used as a source of native soluble IL-6R. By this assay, we aimed to confirm the alphascreen results and to get a view on the cross-reactivity of the clones towards cynomolgous IL-6R. Human plasma (ELISA 1 and ELISA 3) or cynomolgous plasma (ELISA 2) were pre-incubated with a dilution of the periplasmic extract of the clones together with human IL-6 (50 ng/mL). Subsequently, plasma soluble IL-6R was captured on a B-N12 coated plate and bound IL-6 was detected using anti-IL-6 antibody BAF206 and streptavidin-HRP (ELISA 1 and ELISA 2). The ELISA signal dropped when the Nanobody clone could compete with IL-6 for binding to soluble IL-6R. ELISA 3 was a parallel ELISA in which the detection antibody was replaced by anti-IL-6R antibody BAF227 to exclude false positive competitors, which actually compete with B-N12 (e.g. family 2). Depicted in Table C-5 is the ratio of the OD450 value of the test sample versus the blank OD450 (mock sample). Clones were ordered based on ELISA 1 data.

Experiment [2] has as its target T1, native soluble IL-6R in human plasma. The experiment is described as follows: ELISA 3, periplasmic extract; competitor BN-12; human plasma. On the procedure: as §1
For experiment [3], the target named is soluble IL-6R in cynomolgous plasma (cynomolgus monkey, UniProt A0A2K5WN54). The experiment is described as follows: ELISA 2, periplasmic extract; competitor IL-6; cyno plasma. Here is the method:
as §1

B1: IL6RPMP100D11 (VHH)
VHH: EVQLVESGGGLVQAGDSLRLSCLASGRSFKDDAMGWFRQAPGKEREFVSGIDWRGNIVDAESVKGRFTISRENAKNTLYLQMNHLKPEDTAVYYCAASSVFSDLRYRKNPKYWGQGTQVTVSS
Consider B1, for which the results for the OD450 ratio sample/blank in experiment [1], in experiment [2] and in experiment [3] were 1.9, 0.969 and 0.962, respectively.

B2: IL6RPMP101G1 (VHH)
VHH: EVQLVESGGGLVQPGGSLRLSCAASGGTLDYYAIGWFRQAPGKEREGVSCISSSDGSTYYASSVKGRFTVSRDKAKNTVYLQMNSLKPEDTAVYYCAFVFTTAQAMGVPNNPYEYDFWGQGTQVTVSS
B2: the values for the OD450 ratio sample/blank in experiment [1], in experiment [2] and in experiment [3] were 0.148, 0.639 and 0.0937, respectively.

B3: IL6RPMP120C10 (VHH)
VHH: EVQLVESGGGLVQAGGSLSLSCATSGRTISDDTMAWFRQAPGKEREFVAIITFNGARTHYSDSVRDRFTISRDNAKNTVYLQMNSLKSEDTAVYYCAASTKYYSSTYNYIHPAFYDIWGQGTQVTVSS
On to B3, for which the values for the OD450 ratio sample/blank in experiment [1], in experiment [2] and in experiment [3] were 0.139, 1.01 and 0.0351, respectively.

B4: IL6RPMP103A5 (VHH)
VHH: EVQLVESGGGLVQAGDSLRLSCVASGLPFSTLHMGWFRQAPGKEHESVSAISSDGGSEYYAGSVKGRFTISRDNAKNTVYLQMNSLKPEDTAVYYCAADPRRIGANIKYSDYWGQGTQVTVSS
As to B4, the OD450 ratio sample/blank amounted to 2.12 in experiment [1], 0.943 in experiment [2] and 0.859 in experiment [3].

B5: IL6RPMP104E7 (VHH)
VHH: EVQLVESGGGLVQAGGSLRLSCAAGGSIFSINAMGWYRQAPGKQRELVASITSGGSTTYADSVKGRFTISRDNAKDTVYLQMNSLKPEDTAVYYCNAHIRFPFPNDYWGQGTQVTVSS
Turning to B5, the OD450 ratio sample/blank worked out at 2.04 in experiment [1], 1.01 in experiment [2] and 0.993 in experiment [3].

B6: IL6RPMP106D6 (VHH)
VHH: EVQLVESGGGLVQAGGSLRLSCAASGFTFDDYAIGWFRQAPGKEREGVSCMISSDGSTYYADSVKGRFTISSDNAKNTVYLQMDSLKPEDTAVYYCAADLSLYGCYVGDRDLYDYDYWGQGTQVTVSS
Turning to B6, the OD450 ratio sample/blank in experiment [1] turned out to be 1.27; in experiment [2] it was 1; in experiment [3] it was 1.13.

B7: IL6RPMP102G3 (VHH)
VHH: EVQLVESGGGLVQAGGSLRLSCAASGSIDRINAMGWYRQAPGKQRDFLAVITDGDKTLYADSVKGRFTISNDNAKNTVYLQMNSLKPEDTAVYYCNAYQAGWGDYWGQGTQVTVSS
On to B7, for which the OD450 ratio sample/blank came out at 1.76 in experiment [1], 0.968 in experiment [2] and 1.32 in experiment [3].

B8: IL6RPMP104E4 (VHH)
VHH: EVQLVESGGGTVQAGGSLKLSCAASGRTFTNYAMGWFRQAPGKEREFVAAIAYATHFADSVKGRFTISRGNAKNTVYLQMNSLKPEDTAVYYCAADLSLSKMVSKITSDMDYWGKGTLVTVSS
B8: the results for the OD450 ratio sample/blank in experiment [1], in experiment [2] and in experiment [3] were 1.34, 1.03 and 0.838, respectively.

B9: IL6RPMP103A4 (VHH)
VHH: EVQLVESGGGLVQPGGSLRLSCAASGSIFSINTMGWYRQVPGKQRELVATVRSGSITNYADSVQDRFTITRDIDENTVYLQMNSLKPEDTAVYYCLTRASVPGRGYQDYWGQGTQVTVSS
Turning to B9, the OD450 ratio sample/blank in experiment [1] is 1.04; in experiment [2], 1.03; in experiment [3] it was 0.916.

B10: IL6RPMP103A2 (VHH)
VHH: EVQLVESGGGLVQPGGSLRLSCAASGSIFSINTMGWYRQVPGKQRELVATVRSGSITNYADSVQDQFTITRDIDENTVYLQMNSLKPEDTAVYYCLTRASVPGRGYQDYWGQGTQVTVSS
Regarding B10, the OD450 ratio sample/blank was determined as 2.04 in experiment [1], 0.993 in experiment [2] and 1.09 in experiment [3].

B11: IL6RPMP103B2 (VHH)
VHH: EVQLVESGGGLVQPGGSLRLSCAASGSTFSINMMAWYCQAPGKQRELVASISSGGGINYADSVKGRFTISRDYAENSVDLQMNSLKPEDTAVYYCNARGTYLNGDHYSTNYNSWGQGTQVTVSS
Take B11: the values for the OD450 ratio sample/blank in experiment [1], in experiment [2] and in experiment [3] were 1.76, 1.02 and 0.81, respectively.

B12: IL6RPMP107B4 (VHH)
VHH: EVQLVESGGGLVQAGGSLRLSCVASGLRLNMHRMGWFRQAPGKEREFVARIFTDDGDSYYADSVQGRFTISGDNAKNTVYLQMNSLKPEDTGVYFCAAGYMSGAESPIGYDNWGQGTQVTVSS
With B12, the OD450 ratio sample/blank in experiment [1] was 1.2; in experiment [2], 1.04; in experiment [3] it was 0.918.

B13: IL6RPMP101A5 (VHH)
VHH: EVQLVESGGGLVQAGGSLRLSCTASGRTFSDYDMGWFRQAPGKERECVAIIDTNGDNTLIVGSVKGRFAISSDNAKNTVYLQMNSLLPEDTAVYTCAAGVWSSLRHTAANYWGQGTQVTVSS
With B13, the OD450 ratio sample/blank in experiment [1] stood at 1.03; in experiment [2], 0.95; in experiment [3] it was 0.736.

B14: IL6RPMP101G3 (VHH)
VHH: EVQLVESGGGLVQAGGSLRLSCTASGRTFSDYDMGWFRQAPGKERECVAIIDTNGDNTLIVGSVKGRFAISSDNAKNTVYLQMNSLLPEDTAVYTCAAGVWSSLRHTAANYWGQGTQVTVSS
In the case of B14, the OD450 ratio sample/blank in experiment [1] turned out to be 1.08; in experiment [2], 0.892; in experiment [3], 0.773.

B15: IL6RPMP101B2 (VHH)
VHH: EVQLVESGGGLVQAGGSLRLSCTASGRTFTDYDMGWFRQAPGKEREVVAIIDTNGDNTLTVGSVKGRFAISSDNAKNTVYLQMNSLLPEDTAVYTCAAGAWSALRRSVANYWGQGTQVTVSS
Turning to B15, the OD450 ratio sample/blank came out at 1.09 in experiment [1], 0.909 in experiment [2] and 0.727 in experiment [3].

B16: IL6RPMP101D6 (VHH)
VHH: EVQLVESGGGLVQAGGSLRLSCTASGRTFSDYDMGWFRQAPGKERECVAIIDTNGDNTLIVGSVKGRFAISSDNAKNTVYLQMNSLLPEDTAVYTCAAGVWSSLRHTAANYWGQGTQVTVSS
For the molecule B16, the values for the OD450 ratio sample/blank in experiment [1], in experiment [2] and in experiment [3] were 1.09, 0.948 and 0.731, respectively.

B17: IL6RPMP101A3 (VHH)
VHH: EVQLVESGGGLVQAGGPLRLSCTASGRTFTDYDMGWFRQAPGKEREVVAIIDTNGDNTLTVGSVKGRFAISSDNAKNTVYLQMNSLLPEDTAVYTCAAGAWSALRRSVANYWGQGTQVTVSS
As to B17, the OD450 ratio sample/blank stood at 1.08 in experiment [1], 0.946 in experiment [2] and 0.687 in experiment [3].

B18: IL6RPMP108C10 (VHH)
VHH: EVQLVESGGGLVQPGGSLRLSCTASGRTFSDYDMGWFRQAPGKERECVAVIDTNGDNTLTVGSVKGRFAISRDNAKNTVYLQMNSLLPEDTAVYTCAAGAWSSLRSTAANYWGQGTQVTVSS
With B18, the OD450 ratio sample/blank was 1.07 in experiment [1], 1.04 in experiment [2] and 0.795 in experiment [3].

B19: IL6RPMP101C2 (VHH)
VHH: EVQLVESGGGLVQAGGSLRLSCTASGRTFSDYDMGWFRQAPGKERECVAIIDTNGDNTLIVGSVKGRFAISSDNAKNTVYLQMNSLLPEDTAVYTCAAGVWSSLRHTAANYWGQGTQVTVSS
On to B19, for which the OD450 ratio sample/blank is 1.04 in experiment [1], 0.952 in experiment [2] and 1.03 in experiment [3].

B20: IL6RPMP108F7 (VHH)
VHH: EVQLVESGGGLVQAGGSLRLSCTASGRTFSDYDMGWFRQAPGKERECVAVIDTNGDNTLTVGSVKGRFAISRDNAKNTVYLQMNSLLPEDTAVYTCAAGAWSSLRSTAANYWGQGTQVTVSS
For B20, the results for the OD450 ratio sample/blank in experiment [1], in experiment [2] and in experiment [3] were 1.05, 1.02 and 0.8, respectively.

B21: IL6RPMP104A8 (VHH)
VHH: EVQLVESGGGLVQAGGSLRLSCTASGRTFSDYDMGWFRQAPGKEREFVAVIDTNGGHTLTVGSVKGRFAISSDNAKNTVYLQMNSLVPEDTAVYTCAAGAWSSLRKTAASYWGQGTQVTVSS
For B21, the OD450 ratio sample/blank in experiment [1] worked out at 2.04; in experiment [2], 0.973; in experiment [3], 0.725.

B22: IL6RPMP104B9 (VHH)
VHH: EVQLVESGGGLVQAGGSLRLSCTASGRTFSDYDMGWFRQAPGKERECVAIIDTNGDNTLIVGSVKGRFAISSDNAKNTVYLQMNSLLPEDTAVYTCAAGVWSSLRHTAANYWGQGTQVTVSS
Turning to B22, the OD450 ratio sample/blank in experiment [1] was found to be 2.06; in experiment [2] it was 1; in experiment [3], 0.766.
